Values belong to the molecule of their own block, whether it stands above or below them.
What was measured:
Type in all cases: physicochemical
[1] = Dispersion of hydrophilic species/amphiphile array in hydrophobic solvent: visual optical clarity
[2] = Turbidity of oil preparations by optical density / absorbance (plate reader); settings: for OD650: Example 23: HDPoC, one hour; for optical density at 550 nm: Example 25: 0.5 mg protein/well, oleic acid
Procedure: It is very much preferred that the preparations of the invention are optically clear and this can be monitored by measuring turbidity at visible wave lengths and, in some cases, by checking for sedimentation over a period of time. […]
Aprotinin was dissolved in distilled water at a concentration of 10 mg/ml. Hexadecyl phosphocholine (HDPoC) was dissolved in distilled water at a concentration of 100 mg/ml. To aliquots of 100 μl of aprotinin solution, volumes of HDPOC were added ranging from 0 through to 10, 20, 30, 40 to 50 μl. The mixtures were frozen at −20° C. and lyophilised overnight. The following day 100 μl of oleic acid was added to each sample and shaken for one hour at room temperature on an orbital shaker.
Octyl glucoside was dissolved in distilled water and dispensed into wells of a microplate to give the following amounts of amphiphile per well: −0, 0.5, 1.0, 1.5, 2.0, 2.5, 5, 7.5 and 10 mg. Aprotinin was dissolved in distilled water at a concentration of 5 mg/ml, and 100 μl was dispensed into each well above, containing 0.5 mg of protein. The plate was mixed well, frozen at −20° C. and lyophilised overnight. The following day, […] of oleic acid was added to each well. The plate was shaken at room temperature, and optical density measurements at 550 nm taken at intervals with a plate reader. A low absorbance value indicates a low level of scattering, and corresponds to effective dispersion of protein in oil.
The results, expressed in terms of optical density as a function of octyl glucoside concentration (at constant protein concentration) at different times after addition of oleic acid are given in the table and accompanying graph.

[3] = Percent sedimentation after 24 hours of macromolecules dispersed in oleic acid with and without PC; settings: 300 μl oleic acid, error ±5%; for Percent sedimentation after 24 hours, +PC: Example 17: with egg yolk PC SUVs; for Percent sedimentation after 24 hours, −PC: Example 17: without PC
Procedure: 10 mg of cytochrome C, haemoglobin and FITC-dextran were each dissolved in 1 ml of distilled water. 4.4 mg of RNA (extracted from Torula yeast) was dissolved in 1 ml of phosphate-buffered saline. 2×50 μl of each of these solution was dispensed into fresh glass tubes, and to one of each of these sets of solutions was added 250 μl of SUVs prepared as in example 1 at a concentration of 40 mg/ml of egg yolk lecithin (PC).
Both sets of tubes were shell-frozen and lyophilised overnight as above. The following day 300 μl of oleic acid was added to each of the tubes. The samples were left to stand at room temperature with occasional vortexing for one hour until complete dispersion had been achieved. The oils were allowed to stand overnight. The turbidity of the samples prepared without PC was greater than those containing PC.
The following day, sediments had settled out in the samples prepared without PC. Without disturbing any of the samples, the top 150 μl of each sample was taken off, and the absorbances measured of both the material removed, and the material left behind, after mixing; comparison of the two readings allowed one to calculate the percentage sedimentation for samples with and without PC (error in measurements ±5%) Values obtained are listed below.

[4] = Example 7: salmon calcitonin together with aprotinin, egg PC (EmulsiFlex), glycerol mono-oleate BP

Molecule: ribonuclease
appearance of dispersion ([1]; Example 31: soy PC SUV, 1.6 g Miglyol 818, after several hours): clear dispersion

appearance of dispersions ([1]; Example 33: soy PC SUV, melts of tripalmitin, triheptadecanoin or tristearin with 2% oleic acid, 78 C, after several minutes): completely clear
Molecule: carboxyfluorescein [reference compound]

Molecule: [Ca+2].[Cl-].[Cl-] [calcium chloride]
appearance of dispersion ([1]; Example 35: soy PC SUV, 500 mg Miglyol 818, after standing overnight): completely clear dispersion
appearance of dispersion ([1]; Example 35: soy PC SUV, 500 mg oleic acid, after several hours): completely clear dispersion

Molecule: aprotinin
OD650 ([2]; lipid:protein ratio 0, 100 μl oleic acid): 1.117
OD650 ([2]; lipid:protein ratio 1:1, 100 μl oleic acid): 0.869
OD650 ([2]; lipid:protein ratio 2:1, 100 μl oleic acid): 0.438
OD650 ([2]; lipid:protein ratio 3:1, 100 μl oleic acid): 0.207
OD650 ([2]; lipid:protein ratio 4:1, 100 μl oleic acid): 0.094
OD650 ([2]; lipid:protein ratio 5:1, 100 μl oleic acid): 0.099
optical density at 550 nm ([2]; octyl glucoside 0.00 mg/well, 1 hr): 0.548
optical density at 550 nm ([2]; octyl glucoside 0.00 mg/well, 4 hr): 0.458
optical density at 550 nm ([2]; octyl glucoside 0.00 mg/well, 8 hr): 0.489
optical density at 550 nm ([2]; octyl glucoside 0.50 mg/well, 1 hr): 0.082
optical density at 550 nm ([2]; octyl glucoside 0.50 mg/well, 4 hr): 0.043
optical density at 550 nm ([2]; octyl glucoside 0.50 mg/well, 8 hr): 0.103
optical density at 550 nm ([2]; octyl glucoside 1.00 mg/well, 1 hr): −0.003
optical density at 550 nm ([2]; octyl glucoside 1.00 mg/well, 4 hr): −0.008
optical density at 550 nm ([2]; octyl glucoside 1.00 mg/well, 8 hr): −0.008
optical density at 550 nm ([2]; octyl glucoside 1.50 mg/well, 1 hr): −0.004
optical density at 550 nm ([2]; octyl glucoside 1.50 mg/well, 4 hr): −0.015
optical density at 550 nm ([2]; octyl glucoside 1.50 mg/well, 8 hr): −0.015
optical density at 550 nm ([2]; octyl glucoside 2.00 mg/well, 1 hr): −0.007
optical density at 550 nm ([2]; octyl glucoside 2.00 mg/well, 4 hr): −0.012
optical density at 550 nm ([2]; octyl glucoside 2.00 mg/well, 8 hr): −0.013
optical density at 550 nm ([2]; octyl glucoside 2.50 mg/well, 1 hr): 0.006
optical density at 550 nm ([2]; octyl glucoside 2.50 mg/well, 4 hr): −0.004
optical density at 550 nm ([2]; octyl glucoside 2.50 mg/well, 8 hr): −0.002
optical density at 550 nm ([2]; octyl glucoside 5.00 mg/well, 1 hr): 0.307
optical density at 550 nm ([2]; octyl glucoside 5.00 mg/well, 4 hr): −0.013
optical density at 550 nm ([2]; octyl glucoside 5.00 mg/well, 8 hr): −0.014
optical density at 550 nm ([2]; octyl glucoside 7.50 mg/well, 1 hr): 0.65
optical density at 550 nm ([2]; octyl glucoside 7.50 mg/well, 4 hr): −0.015
optical density at 550 nm ([2]; octyl glucoside 7.50 mg/well, 8 hr): −0.014
optical density at 550 nm ([2]; octyl glucoside 10.00 mg/well, 1 hr): 1.628
optical density at 550 nm ([2]; octyl glucoside 10.00 mg/well, 4 hr): 0.817
optical density at 550 nm ([2]; octyl glucoside 10.00 mg/well, 8 hr): −0.014
appearance of oil phase ([1]; Example 3: lyophilate stored 5 days at 4° C. in desiccator with phosphorus pentoxide, then 300 mg oleic acid): optically clear oil phase
appearance of dispersion [1, 4]: optically clear opalescent dispersion
appearance of solution ([1]; Example 23: HDPoC, lipid:protein ratio 4:1, oleic acid): Optically clear solutions
appearance of solution ([1]; Example 23: HDPoC, lipid:protein ratio 5:1, oleic acid): Optically clear solutions
appearance of dispersion ([1]; Example 36: AOT amphiphile, 200 mg octanol, cleared rapidly, state after 24 hours): opalescent dispersion

Molecule: Cytochrome C
Percent sedimentation after 24 hours, +PC [3]: 3.1%
Percent sedimentation after 24 hours, −PC [3]: 76%

appearance of solution ([1]; Example 27: soya PC dispersion, 1 g Miglyol 818, overnight at room temperature): optically clear solution
Molecule: NC[C@@H]1O[C@H](O[C@H]2[C@@H](O)[C@H](O[C@@H]3[C@@H](O)[C@H](N)C[C@H](N)[C@H]3O[C@H]3O[C@H](CN)[C@@H](O)[C@H](O)[C@H]3N)O[C@@H]2CO)[C@H](N)[C@@H](O)[C@@H]1O.O=S(=O)(O)O [Neomycin sulphate, reference compound]

Molecule: ferritin
appearance of solution ([1]; Example 18: egg yolk PC SUVs, ammonium acetate 10 mg/ml, oleic acid): optically clear solutions were obtained (although ferritin solution showed some opalescence, and was strongly coloured)

Molecule: Salmon calcitonin
appearance of oil phase ([1]; Example 1: egg PC SUVs, lyophilised, 300 mg oleic acid BP, one to two hours at room temperature): single clear lipid phase, which was optically transparent
protein content of clear preparation ([1]; Example 2: soy PC SUVs, 95% oleic acid): 6.7 mg protein/g oleic acid
appearance of preparation ([1]; Example 2: soy PC SUVs, lyophilised, 1.2 g of 95% oleic acid): completely clear
appearance of oil phase ([1]; Example 4: 13.4 mg protein, 100 mg soy PC, 200 mg oleic acid): clear oil phase
calcitonin content of clear oil phase ([1]; Example 4: soy PC SUVs, 200 mg oleic acid): 42.7 mg calcitonin/g
appearance of dispersion [1, 4]: optically clear opalescent dispersion
appearance of dispersion ([1]; Example 11: 30 mg soy PC, 300 mg MCT oil, following morning): opalescent
appearance of dispersion ([1]; Example 11: 30 mg soy PC, 300 mg Miglyol 810, following morning): turbid
appearance of dispersion ([1]; Example 11: 30 mg soy PC, 300 mg Miglyol 812, following morning): opalescent
appearance of dispersion ([1]; Example 11: 30 mg soy PC, 300 mg Miglyol 818, following morning): completely clear
appearance of dispersion ([1]; Example 11: 30 mg soy PC, 300 mg Miglyol 829, following morning): completely clear
appearance of dispersion ([1]; Example 11: 30 mg soy PC, 300 mg Miglyol 840, following morning): turbid

Molecule: Haemoglobin
Percent sedimentation after 24 hours, +PC [3]: 0%
Percent sedimentation after 24 hours, −PC [3]: 44%

Source: patent US6368619B1, “Hydrophobic preparations of hydrophilic species and process for their preparation” (Provalis UK Limited, priority 1993, dated 2002)
